The target in this test is T1, E. coli MukB (E. coli, UniProt P22523 1-1486).
T1 sequence: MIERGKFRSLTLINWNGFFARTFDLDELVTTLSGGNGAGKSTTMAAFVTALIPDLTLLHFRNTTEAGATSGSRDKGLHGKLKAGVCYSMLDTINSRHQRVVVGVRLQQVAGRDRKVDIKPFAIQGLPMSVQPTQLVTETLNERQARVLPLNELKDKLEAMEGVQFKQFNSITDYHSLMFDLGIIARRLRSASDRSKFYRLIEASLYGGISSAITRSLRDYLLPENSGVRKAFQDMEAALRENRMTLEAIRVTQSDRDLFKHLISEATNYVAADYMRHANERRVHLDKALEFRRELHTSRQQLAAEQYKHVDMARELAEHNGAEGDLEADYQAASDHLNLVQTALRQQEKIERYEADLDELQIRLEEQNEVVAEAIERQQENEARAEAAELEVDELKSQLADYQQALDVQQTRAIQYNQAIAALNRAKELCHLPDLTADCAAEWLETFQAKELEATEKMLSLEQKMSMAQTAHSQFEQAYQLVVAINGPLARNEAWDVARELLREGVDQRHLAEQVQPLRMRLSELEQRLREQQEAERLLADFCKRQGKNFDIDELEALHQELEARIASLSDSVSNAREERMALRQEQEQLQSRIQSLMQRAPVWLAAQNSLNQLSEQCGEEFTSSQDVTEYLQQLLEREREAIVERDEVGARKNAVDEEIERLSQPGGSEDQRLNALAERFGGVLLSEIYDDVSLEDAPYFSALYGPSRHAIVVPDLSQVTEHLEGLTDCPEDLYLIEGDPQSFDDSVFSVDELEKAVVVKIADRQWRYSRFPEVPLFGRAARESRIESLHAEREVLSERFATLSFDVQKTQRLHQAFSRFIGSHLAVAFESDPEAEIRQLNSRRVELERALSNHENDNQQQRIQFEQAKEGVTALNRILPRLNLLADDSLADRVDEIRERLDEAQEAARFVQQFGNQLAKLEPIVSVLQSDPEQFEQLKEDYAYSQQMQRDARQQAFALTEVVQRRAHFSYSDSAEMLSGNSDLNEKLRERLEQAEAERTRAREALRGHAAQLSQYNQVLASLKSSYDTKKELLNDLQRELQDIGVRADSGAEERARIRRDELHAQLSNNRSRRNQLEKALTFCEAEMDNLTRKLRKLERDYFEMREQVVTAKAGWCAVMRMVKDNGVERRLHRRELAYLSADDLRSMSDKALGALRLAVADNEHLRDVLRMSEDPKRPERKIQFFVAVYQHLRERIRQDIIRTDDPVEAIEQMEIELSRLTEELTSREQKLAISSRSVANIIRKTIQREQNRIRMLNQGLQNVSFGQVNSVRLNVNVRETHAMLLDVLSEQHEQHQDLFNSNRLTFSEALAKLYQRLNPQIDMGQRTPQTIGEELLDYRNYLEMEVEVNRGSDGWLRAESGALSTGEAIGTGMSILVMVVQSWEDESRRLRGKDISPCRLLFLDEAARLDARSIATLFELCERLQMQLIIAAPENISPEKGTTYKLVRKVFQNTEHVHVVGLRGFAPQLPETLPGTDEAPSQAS
The test can be described thus: SEC.

B1: E. coli MukEF complex (complex)
chain 1: MSSTNIEQVMPVKLAQALANPLFPALDSALRSGRHIGLDELDNHAFLMDFQEYLEEFYARYNVELIRAPEGFFYLRPRSTTLIPRSVLSELDMMVGKILCYLYLSPERLANEGIFTQQELYDELLTLADEAKLLKLVNNRSTGSDVDRQKLQEKVRSSLNRLRRLGMVWFMGHDSSKFRITESVFRFGADVRAGDDPREAQRRLIRDGEAMPIENHLQLNDETEENQPDSGEEE
chain 2: MSEFSQTVPELVAWARKNDFSISLPVDRLSFLLAVATLNGERLDGEMSEGELVDAFRHVSDAFEQTSETIGVRANNAINDMVRQRLLNRFTSEQAEGNAIYRLTPLGIGITDYYIRQREFSTLRLSMQLSIVAGELKRAADAAEEGGDEFHWHRNVYAPLKYSVAEIFDSIDLTQRLMDEQQQQVKDDIAQLLNKDWRAAISSCELLLSETSGTLRELQDTLEAAGDKLQANLLRIQDATMTHDDLHFVDRLVFDLQSKLDRIISWGQQSIDLWIGYDRHVHKFIRTAIDMDKNRVFAQRLRQSVQTYFDEPWALTYANADRLLDMRDEEMALRDEEVTGELPEDLEYEEFNEIREQLAAIIEEQLAVYKTRQVPLDLGLVVREYLSQYPRARHFDVARIVIDQAVRLGVAQADFTGLPAKWQPINDYGAKVQAHVIDKY
Consider B1, for which the binding result is recorded as “binds”.

(Values after publication PMC6433275 (Nature structural & molecular biology, 2019).)
